Molecular target: porcine stomach mucin (porcine)
Test: SPR

## YASPKCFRYPNGVLACT [odorranalectin]
  Kd: 1910 nM
